# According to the nanobody polyreactivity screen of Harvey et al. (2022):
# Test: yeast display, Sf9 membrane polyspecificity reagent, FACS + sequencing; frameworks hold sequencing errors
# Procedure, shortened: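 Nanobodies from a synthetic yeast display library (Saccharomyces cerevisiae BJ5465), induced 36–48 hours with galactose, were stained 1 hour at 4 °C with 10% biotinylated, detergent-solubilized Sf9 membrane reagent, enriched on streptavidin microbeads, then FACS-sorted. Anti-HA (expression) and streptavidin (reagent binding) fluorescence set low and high (top ~1%) gates. Polyreactivity labels come from the gate of origin. Genes were colony-PCR amplified, MiSeq 2 × 250 sequenced and filtered by CDR length.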
row,Sequence,polyreactivity (PSR sort gate)
1,QVQLVESGGGLVQAGGSLRLSCAASGFIFAEYAMGWYRQAPWKERELVAAITRSGGRTYYADSVKGRFTISRDNAKNTVYLQMNSLKPEDTAVYYCAAGLGYPRLYYCGQGTQVTVSS,high polyreactivity
2,QVHLQESGGGLVQAGGSLRLSCAASGTISQEDWMGWYRQAPGKEREFVAAIGLGSNTNYADSLKGRFTISRDNAKNSVYLQKNSLKPEDTAVYYFAVSVWQYSDHVYRGQGTQVTVSS,low polyreactivity
3,QVQLVESGGGLVQAGGRLRLSCAASGRIFSAYAMGWYRQAPGKERELVAAISRSGGRTYYADSVKGRFTISRDNAKNTVYLQMNSLKPEDTAVYYCAAARFAIVRGDYWGQGTQVTVSS,high polyreactivity
4,QVQLVESWGGLFQAGGSLRLRCAASGRKFYYYAMVFYIQAPGKERELVAAITGRGGRTYYADSVKGRFTISRDNAKNTVYLQINSLKPDDTAVYYCAVRAGSAGYPKYDYWGQGTQVTLSS,high polyreactivity
5,QVQLVESGGGLGQAGGSLRLSCAASGIIFVENAMGWNRQAPGKERELVATITSGDTTNYADSVKGRFTISRDNAKNTVYLQMNSLKPEDTAVYYCKKVVPDDAYIFAYDYWGQGTQVTVSS,low polyreactivity
6,QVQLVESGGGLVQAGGSLRLSCAASGRILRYNAMGWYRQAPGKERELVASISGNGGSTYYADSVKGRFTISRDNAKNTVYLQMNSLKPEDTAVYYCNKYYYSSRGQKEYDYWGQGTQVTVSS,low polyreactivity
7,QVHLVESGGGLVQAGGSLRLSCAASGRTFGWNVMGWYRQAPGKERELVAAISGSGGSTYYADSVKGRFTISRDNAKNTVYLQMNSLKPEVTAVYYCAALYGPGREYDYWGQGTQVTVSS,low polyreactivity
8,QVQLVESGGGLVQAGGSLRLSCAASGSTFTYYAMGWYRQATGKETELVAAINIGGGGTYYADSVKGRFTISRDNAKNTVYLQMKSLKPEYTAVYYCATDIYFENGFGYWGQGTQVTVSS,low polyreactivity
9,QVQLVESGGGLVQAGGSLRLSCDASGSTFAAYAMGWYRQAPGKERELVAAISRSGGTTYYADSVKGRFTISRDNAKNTVYLQMNSLKPEDTAVYYCAAELSLGNYWYDYWGQGTQVTVSS,high polyreactivity
10,QVQLVESGGGLVQAGGSLRLSCAASGRIFTRNAMGWYRQAPGKERELVAAISRSGGSTYYADSVKGRFTISRDNAKNTVYLQMNSLKPEDTAVYYCAKRGYDNYPFYYWGQGTQVTVSS,high polyreactivity
11,QVQLVESGGGLVQPGCSLRLSCAASGSTFESYAMGWYRQAPGKERELVAAISWRVGSTYYADSVKGRFTISRDNAKNTVYLQMNSLKPEDNAVYYCASKGWYSHYGGYDYWGQGTQVTVSS,low polyreactivity
12,QVQLVESGGGLVQAGVSLRISCAASGFTFPEYDMGWYRQAPGKERELVATISGNGGRTYYADSVKGRFTISRYNAKNTVYLQMNSLKPEDTAVYYCAALLYIRSVVYDYWGQGTQVTVSS,low polyreactivity
13,QVQLVESGGGLVQAGGSLRLSCAASGGTFRVYAMGWYRKAPGKERELVAAITGRGGSTYYADSVKGRFTISRDNAKNTVYLQMNSLKPEDTAVYDCAKDPVTTYYKYDYWGQGTQVTVSS,low polyreactivity
14,QVQLVESGGGLVQAGGSLRISCAASGSTFWYYAMGWYRQAPGKERELVAAINSDDSTNYADSVKGRFTISRDNAKNTVYLQMNSLKPEDTAVYYCNRGFVYSTTGLWRYYDFDYWGQGTQVTVSS,low polyreactivity
15,QVQLVESGGCLVQAGGSLRLSCPPSGSIFIYYAMGWYRHAPGKERELVAAISWSCGDTYYADSVKGRFTISRDNAKNTVYLQMNSLKPEDTAVYYCNADFDPYYPYTAWDSVLTHDEYWGQGTQVTVSS,low polyreactivity
16,QVQLVESGGGLVQAGGSLRLSCAASGFTFGKYAMGWYRPAPAKERELVAAISRSGGSTYYADSVKGRFTISRDIAKNTVYLQMNSLKPEDTAVYYCAAYHPIQEYDYWGQGTQVTVSS,high polyreactivity

row,Sequence,polyreactivity (PSR sort gate)
1,QVQLVESGGGLVQAGGSLRLSCAASGYTLGPNTMGWYRQAPGKERELVATITYSGGSTYYADSVKGRFTISRDNAKNTVYLQMNSLKPEDTAVYYCAARYGSRRIPGSLGYWGQGTQVTVSS,high polyreactivity
2,QVQRVESGGGLVQAGGSLRLSCAASGRNSQFYDMGWYRQAPGKERELVATISGGASTNYADSVKGRFTISRDNAKNTVYLQMNSLKPEDTAVYYCARAGRSWDTLYKYYLEHDYWGQGTQVTVSS,low polyreactivity
3,QVQLVESGGGLVHAGGSLRLSCAASGFILTGYTMGWYRQAPGKEMELVAAISYRGGSTYYADSVKGRFTISRDNAKNTVYLQMNSLKPEDTAVYYCNAVWSNFRLGYDYWGQGTQVTVSS,high polyreactivity
4,QVQLVVSGGGLVQAGGSLRLSCSASGYTFWRYAMGWYRQAPGKERELVAAISQSGGRTYYADSVKGRYTISRDNAKNTVYLQMNSLKPEDTAVYFCATSYSQGDDYWGQGTQVTVSS,high polyreactivity
5,QVQLVESGGGLVQAGGSLRLSCAASGSIFWTYAMGWYRQAPGKERELVAGIRWSGGTTYADSVKGRFTISRDNAKNTVYLQMNSLKPEDTAVYYCNHYLSTYHGTFTYGYWGQGTQVTVSS,low polyreactivity
6,QVQLVESGGVLVQAGCSLRLSCAAYGFTFASYAMGWYRQAPGKERELVAAISWGTVSTYYADSVKGRFTISRDNAMITVYLQMNSLRREDTAVYFCDAQRYTRLRRHGYWGLGTQVTVSS,high polyreactivity
7,QVQLVESGGGLVQAGGSLRLSCAASGSIFNYYAMGWYRQAPGKERDLVAAITTSGGNTYYADSVKGRFTISRDNAKNTVYLLMYSLKPEDTAVYYCAADYWASGGEYDYWGQGTQVSVSS,low polyreactivity
8,QVQLVESGGGLVQAGGSHRLSCAASGSIFRWYAMGWYRQAPGKERELVAAITSGGGTNYADSVKGRFTISRDNAKNTVYIQMNCLKPEDTAVYYCNAAAWLRWGYRGGFWRYDYWGQGTQVTVSS,high polyreactivity
9,QVQLVESGGGLVQAGGSLRLICAASGRIFLGYAMGWYRKAPGKERELVAAITSSSGITYYADSVKGRFTISRDNAKNSVYLQMNSLKPEDTAVYYCAARASSGRRTKRYNYWGQGTKVTVSS,low polyreactivity
10,QVQLVESGGGLVQAGGSLRLSCAASGRIFYYNVMGWYRQAPGKERELVASISYSSTRTYYADSVKGRFTISRDNAKNTVYLQMNSLKPEDTAVYYCAVDTYAYRGVSYWSERTYYYWGQGTQVTVSS,low polyreactivity
11,QVQHVESGGGLVQAGGSLRLSCAASGRTFIINTMGWYRQAPGKERELVAAISKFGATTNYADSVKGRFTISRDNAKNTVYLQMNSLKPEDTAVYYCNARYSGYLRLDYWGQGTQVTVSS,low polyreactivity
12,QVQLVESGGGLVQAGGSLRLSCAASGNTLQVYAMGGYRPAPGKERELVARLTGGGRTSYADSVKGRFTISRDNAKTTVYLQMHSLKPEDTAVYYCATVYYGHIVLYDYWGQGTQVTVSA,low polyreactivity
13,QVQLVESGGGLDQAGGSLRLSCAASGLILRRYDMGWYRQAPGKERELVAAISGSGGRTYYADSVKGRFTISRDNAKNTVYLQMNSLKPEDTAVYYCAAEYSYYYDQYSYDYWGQGTQVTVSS,high polyreactivity
14,QVQLVESGGGLVQAGGSLRISCAASGTFGSNAMGWYRQAPGKERELVAAINSGGTTKYADSVKGRFTISRDNAKNTVYLQMNSLKPEDTAVYYCNAREGVFRYPVAHDYWGQGTQVTVSS,low polyreactivity
15,QLQLVESGGGLVQAGGSLRLSCASSGIIFRWYTIGWSRQAPGKERELDAAITGRGGSTFYADSVKGRFTISRDNAKNTVYVQMNSLKPEDTAFYYCAAQYSYPTPYRTYEYDYWGQGTQVTVSS,high polyreactivity
